Measured values: the MegaScale stability set (Tsuboyama et al. 2023)

B1: r16_88_TrROS_Hall (parent)
chain: EVIELKIKFKTPEQREKLKEIAKKLNAEVVEEKDGEVIIRFKTPEQAERALKEAEKLGAEVEL

Variants of: B1
Assay: folding stability dG (cDNA display proteolysis); higher = more stable
Conditions: PBS, room temperature

In order of falling “folding stability dG” value:
1. EVIELKIKFKTPEQREKLKEIAKKLNAEVVEEKDGEVIIRFKTPEQQERALKEAEKLGAEVEL  4.8 kcal/mol
2. EVIELKIKFKTPEQREKLKEIAKKLNAEVVEEKDGEVIIRFKTPEQYERALKEAEKLGAEVEL  4.79 kcal/mol
3. EVIELKIKFKTPEQREKLKEIAKKLNAEVVEEKDGEVIIRFKTPEQWERALKEAEKLGAEVEL  4.78 kcal/mol
4. EVIELKIKFKTPEQREKLKEIAKKLNAEVVEEKDGEVIIRFKTPCQAERALKEAEKLGAEVEL  4.77 kcal/mol
5. EVIELKIKFKTPEQREKLKEIAKKLNAEVVEEKDGEVIIRFKTHEQAERALKEAEKLGAEVEL  4.75 kcal/mol
6. EVIELKIKFKTPEQREKLKEIAKKLNAEVVEEKDGEVIIRFKTPYQAERALKEAEKLGAEVEL  4.73 kcal/mol
7. EVIELKIKFKTPEQREKLKEIAKKLNAEVVEEKDGEVIIRFKTPEQAFRALKEAEKLGAEVEL  4.72 kcal/mol
8. EVIELKIKFKTPEQREKLKEIAKKLNAEVVEEKDGEVIIRFKTPEQAKRALKEAEKLGAEVEL  4.67 kcal/mol
9. EVIELKIKFKTPEQREKLKEIAKKLNAEVVEEKDGEVIIRFKTLEQAERALKEAEKLGAEVEL  4.65 kcal/mol
10. EVIELKIKFKTPEQREKLKEIAKKLNAEVVEEKDGEVIIRFKTPEQLERALKEAEKLGAEVEL  4.65 kcal/mol
11. EVIELKIKFKTPEQREKLKEIAKKLNAEVVEEKDGEVIIRFKTPEQKERALKEAEKLGAEVEL  4.65 kcal/mol
12. EVIELKIKFKTPEQREKLKEIAKKLNAEVVEEKDGEVIIRFKTPEQVERALKEAEKLGAEVEL  4.63 kcal/mol
13. EVIELKIKFKTPEQREKLKEIAKKLNAEVVEEKDGEVIIRFKTPEQANRALKEAEKLGAEVEL  4.62 kcal/mol
14. EVIELKIKFKTPEQREKLKEIAKKLNAEVVEEKDGEVIIRFKTKEQAERALKEAEKLGAEVEL  4.61 kcal/mol
15. EVIELKIKFKTPEQREKLKEIAKKLNAEVVEEKDGEVIIRFKTPTQAERALKEAEKLGAEVEL  4.61 kcal/mol
16. EVIELKIKFKTPEQREKLKEIAKKLNAEVVEEKDGEVIIRFKTMEQAERALKEAEKLGAEVEL  4.59 kcal/mol
17. EVIELKIKFKTPEQREKLKEIAKKLNAEVVEEKDGEVIIRFKTWEQAERALKEAEKLGAEVEL  4.58 kcal/mol
18. EVIELKIKFKTPEQREKLKEIAKKLNAEVVEEKDGEVIIRFKTQEQAERALKEAEKLGAEVEL  4.56 kcal/mol
19. EVIELKIKFKTPEQREKLKEIAKKLNAEVVEEKDGEVIIRFKTNEQAERALKEAEKLGAEVEL  4.55 kcal/mol
20. EVIELKIKFKTPEQREKLKEIAKKLNAEVVEEKDGEVIIRFKTFEQAERALKEAEKLGAEVEL  4.54 kcal/mol
21. EVIELKIKFKTPEQREKLKEIAKKLNAEVVEEKDGEVIIRFKTPEQRERALKEAEKLGAEVEL  4.53 kcal/mol
22. EVIELKIKFKTPEQREKLKEIAKKLNAEVVEEKDGEVIIRFKTPEQFERALKEAEKLGAEVEL  4.52 kcal/mol
23. EVIELKIKFKTPEQREKLKEIAKKLNAEVVEEKDGEVIIRFKTPEQAHRALKEAEKLGAEVEL  4.52 kcal/mol
24. EVIELKIKFKTPEQREKLKEIAKKLNAEVVEEKDGEVIIRFKTPEQACRALKEAEKLGAEVEL  4.52 kcal/mol
25. EVIELKIKFKTPEQREKLKEIAKKLNAEVVEEKDGEVIIRFKTPEQIERALKEAEKLGAEVEL  4.51 kcal/mol
26. EVIELKIKFKTPEQREKLKEIAKKLNAEVVEEKDGEVIIRFKTPEQAARALKEAEKLGAEVEL  4.5 kcal/mol
27. EVIELKIKFKTPEQREKLKEIAKKLNAEVVEEKDGEVIIRFKTPIQAERALKEAEKLGAEVEL  4.5 kcal/mol
28. EVIELKIKFKTPEQREKLKEIAKKLNAEVVEEKDGEVIIRFKTSEQAERALKEAEKLGAEVEL  4.49 kcal/mol
29. EVIELKIKFKTPEQREKLKEIAKKLNAEVVEEKDGEVIIRFKTPEGAERALKEAEKLGAEVEL  4.48 kcal/mol
30. EVIELKIKFKTPEQREKLKEIAKKLNAEVVEEKDGEVIIRFKTPESAERALKEAEKLGAEVEL  4.47 kcal/mol
31. EVIELKIKFKTPEQREKLKEIAKKLNAEVVEEKDGEVIIRFKTPEQADRALKEAEKLGAEVEL  4.47 kcal/mol
32. EVIELKIKFKTPEQREKLKEIAKKLNAEVVEEKDGEVIIRFKTTEQAERALKEAEKLGAEVEL  4.46 kcal/mol
33. EVIELKIKFKTPEQREKLKEIAKKLNAEVVEEKDGEVIIRFKTPEQCERALKEAEKLGAEVEL  4.46 kcal/mol
34. EVIELKIKFKTPEQREKLKEIAKKLNAEVVEEKDGEVIIRFKTPEQAMRALKEAEKLGAEVEL  4.46 kcal/mol
35. EVIELKIKFKTPEQREKLKEIAKKLNAEVVEEKDGEVIIRFKTPMQAERALKEAEKLGAEVEL  4.46 kcal/mol
36. EVIELKIKFKTPEQREKLKEIAKKLNAEVVEEKDGEVIIRFKTPEPAERALKEAEKLGAEVEL  4.44 kcal/mol
37. EVIELKIKFKTPEQREKLKEIAKKLNAEVVEEKDGEVIIRFKTPFQAERALKEAEKLGAEVEL  4.44 kcal/mol
38. EVIELKIKFKTPEQREKLKEIAKKLNAEVVEEKDGEVIIRFKTPEFAERALKEAEKLGAEVEL  4.43 kcal/mol
39. EVIELKIKFKTPEQREKLKEIAKKLNAEVVEEKDGEVIIRFKTPEQHERALKEAEKLGAEVEL  4.42 kcal/mol
40. EVIELKIKFKTPEQREKLKEIAKKLNAEVVEEKDGEVIIRFKTPKQAERALKEAEKLGAEVEL  4.42 kcal/mol
41. EVIELKIKFKTPEQREKLKEIAKKLNAEVVEEKDGEVIIRFKTPECAERALKEAEKLGAEVEL  4.41 kcal/mol
42. EVIELKIKFKTPEQREKLKEIAKKLNAEVVEEKDGEVIIRFKTYEQAERALKEAEKLGAEVEL  4.39 kcal/mol
43. EVIELKIKFKTPEQREKLKEIAKKLNAEVVEEKDGEVIIRFKTPEQSERALKEAEKLGAEVEL  4.39 kcal/mol
44. EVIELKIKFKTPEQREKLKEIAKKLNAEVVEEKDGEVIIRFKTPEQMERALKEAEKLGAEVEL  4.39 kcal/mol
45. EVIELKIKFKTPEQREKLKEIAKKLNAEVVEEKDGEVIIRFKTPNQAERALKEAEKLGAEVEL  4.39 kcal/mol
46. EVIELKIKFKTPEQREKLKEIAKKLNAEVVEEKDGEVIIRFKTPEVAERALKEAEKLGAEVEL  4.38 kcal/mol
47. EVIELKIKFKTPEQREKLKEIAKKLNAEVVEEKDGEVIIRFKTPQQAERALKEAEKLGAEVEL  4.38 kcal/mol
48. EVIELKIKFKTPEQREKLKEIAKKLNAEVVEEKDGEVIIRFKTPGQAERALKEAEKLGAEVEL  4.38 kcal/mol
49. EVIELKIKFKTPEQREKLKEIAKKLNAEVVEEKDGEVIIRFKTPEDAERALKEAEKLGAEVEL  4.37 kcal/mol
50. EVIELKIKFKTPEQREKLKEIAKKLNAEVVEEKDGEVIIRFKTGEQAERALKEAEKLGAEVEL  4.37 kcal/mol
51. EVIELKIKFKTPEQREKLKEIAKKLNAEVVEEKDGEVIIRFKTPRQAERALKEAEKLGAEVEL  4.37 kcal/mol
52. EVIELKIKFKTPEQREKLKEIAKKLNAEVVEEKDGEVIIRFKTPWQAERALKEAEKLGAEVEL  4.37 kcal/mol
53. EVIELKIKFKTPEQREKLKEIAKKLNAEVVEEKDGEVIIRFKTVEQAERALKEAEKLGAEVEL  4.35 kcal/mol
54. EVIELKIKFKTPEQREKLKEIAKKLNAEVVEEKDGEVIIRFKTIEQAERALKEAEKLGAEVEL  4.34 kcal/mol
55. EVIELKIKFKTPEQREKLKEIAKKLNAEVVEEKDGEVIIRFKTPEQTERALKEAEKLGAEVEL  4.34 kcal/mol
56. EVIELKIKFKTPEQREKLKEIAKKLNAEVVEEKDGEVIIRFKTPAQAERALKEAEKLGAEVEL  4.33 kcal/mol
57. EVIELKIKFKTPEQREKLKEIAKKLNAEVVEEKDGEVIIRFKTPEQALRALKEAEKLGAEVEL  4.29 kcal/mol
58. EVIELKIKFKTPEQREKLKEIAKKLNAEVVEEKDGEVIIRFKTPLQAERALKEAEKLGAEVEL  4.29 kcal/mol
59. EVIELKIKFKTPEQREKLKEIAKKLNAEVVEEKDGEVIIRFKTPSQAERALKEAEKLGAEVEL  4.29 kcal/mol
60. EVIELKIKFKTPEQREKLKEIAKKLNAEVVEEKDGEVIIRFKTPELAERALKEAEKLGAEVEL  4.28 kcal/mol
61. EVIELKIKFKTPEQREKLKEIAKKLNAEVVEEKDGEVIIRFKTPEAAERALKEAEKLGAEVEL  4.28 kcal/mol
62. EVIELKIKFKTPEQREKLKEIAKKLNAEVVEEKDGEVIIRFKTPEQGERALKEAEKLGAEVEL  4.28 kcal/mol
63. EVIELKIKFKTPEQREKLKEIAKKLNAEVVEEKDGEVIIRFKTPEQAGRALKEAEKLGAEVEL  4.28 kcal/mol
64. EVIELKIKFKTPEQREKLKEIAKKLNAEVVEEKDGEVIIRFKTPENAERALKEAEKLGAEVEL  4.26 kcal/mol
65. EVIELKIKFKTPEQREKLKEIAKKLNAEVVEEKDGEVIIRFKTPETAERALKEAEKLGAEVEL  4.25 kcal/mol
66. EVIELKIKFKTPEQREKLKEIAKKLNAEVVEEKDGEVIIRFKTPVQAERALKEAEKLGAEVEL  4.24 kcal/mol
67. EVIELKIKFKTPEQREKLKEIAKKLNAEVVEEKDGEVIIRFKTPEHAERALKEAEKLGAEVEL  4.23 kcal/mol
68. EVIELKIKFKTPEQREKLKEIAKKLNAEVVEEKDGEVIIRFKTPDQAERALKEAEKLGAEVEL  4.22 kcal/mol
69. EVIELKIKFKTPEQREKLKEIAKKLNAEVVEEKDGEVIIRFKTPEKAERALKEAEKLGAEVEL  4.21 kcal/mol
70. EVIELKIKFKTPEQREKLKEIAKKLNAEVVEEKDGEVIIRFKTPEWAERALKEAEKLGAEVEL  4.2 kcal/mol
71. EVIELKIKFKTPEQREKLKEIAKKLNAEVVEEKDGEVIIRFKTPEEAERALKEAEKLGAEVEL  4.18 kcal/mol
72. EVIELKIKFKTPEQREKLKEIAKKLNAEVVEEKDGEVIIRFKTREQAERALKEAEKLGAEVEL  4.18 kcal/mol
73. EVIELKIKFKTPEQREKLKEIAKKLNAEVVEEKDGEVIIRFKTPEQEERALKEAEKLGAEVEL  4.18 kcal/mol
74. EVIELKIKFKTPEQREKLKEIAKKLNAEVVEEKDGEVIIRFKTPEYAERALKEAEKLGAEVEL  4.17 kcal/mol
75. EVIELKIKFKTPEQREKLKEIAKKLNAEVVEEKDGEVIIRFKTPEQAIRALKEAEKLGAEVEL  4.17 kcal/mol
76. EVIELKIKFKTPEQREKLKEIAKKLNAEVVEEKDGEVIIRFKTPPQAERALKEAEKLGAEVEL  4.16 kcal/mol
77. EVIELKIKFKTPEQREKLKEIAKKLNAEVVEEKDGEVIIRFKTPEIAERALKEAEKLGAEVEL  4.15 kcal/mol
78. EVIELKIKFKTPEQREKLKEIAKKLNAEVVEEKDGEVIIRFKTPEMAERALKEAEKLGAEVEL  4.15 kcal/mol
79. EVIELKIKFKTPEQREKLKEIAKKLNAEVVEEKDGEVIIRFKTDEQAERALKEAEKLGAEVEL  4.15 kcal/mol
80. EVIELKIKFKTPEQREKLKEIAKKLNAEVVEEKDGEVIIRFKTEEQAERALKEAEKLGAEVEL  4.1 kcal/mol
81. EVIELKIKFKTPEQREKLKEIAKKLNAEVVEEKDGEVIIRFKTPHQAERALKEAEKLGAEVEL  4.08 kcal/mol
82. EVIELKIKFKTPEQREKLKEIAKKLNAEVVEEKDGEVIIRFKTPERAERALKEAEKLGAEVEL  4 kcal/mol
83. EVIELKIKFKTPEQREKLKEIAKKLNAEVVEEKDGEVIIRFKTPEQNERALKEAEKLGAEVEL  3.68 kcal/mol
84. EVIELKIKFKTPEQREKLKEIAKKLNAEVVEEKDGEVIIRFKTPEQPERALKEAEKLGAEVEL  3.25 kcal/mol
85. EVIELKIKFKTPEQREKLKEIAKKLNAEVVEEKDGEVIIRFKTPEQDERALKEAEKLGAEVEL  3.16 kcal/mol
